The values that follow come from doi:10.1101/2023.06.23.546279 (bioRxiv, 2023).

One assay concerns the target Tho2 (S. cerevisiae, UniProt P53552 1-1597). Put plainly: affinity purification with mass spectrometry.
The next assay has as its target T1, Mft1 (S. cerevisiae, UniProt P33441 1-392).
T1 sequence: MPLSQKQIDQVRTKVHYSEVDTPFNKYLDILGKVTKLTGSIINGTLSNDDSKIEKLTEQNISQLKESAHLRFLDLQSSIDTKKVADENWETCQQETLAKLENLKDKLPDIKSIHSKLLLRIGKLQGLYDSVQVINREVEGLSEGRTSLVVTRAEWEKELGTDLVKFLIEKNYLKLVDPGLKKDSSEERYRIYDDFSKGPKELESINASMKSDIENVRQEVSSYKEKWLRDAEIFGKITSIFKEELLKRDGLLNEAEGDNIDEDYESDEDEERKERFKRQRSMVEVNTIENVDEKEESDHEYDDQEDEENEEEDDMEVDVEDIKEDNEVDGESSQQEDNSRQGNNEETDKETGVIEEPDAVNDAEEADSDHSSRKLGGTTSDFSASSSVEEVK
Nature of the assay: cross-linking.

Tho2, sequence (P53552 whole entry): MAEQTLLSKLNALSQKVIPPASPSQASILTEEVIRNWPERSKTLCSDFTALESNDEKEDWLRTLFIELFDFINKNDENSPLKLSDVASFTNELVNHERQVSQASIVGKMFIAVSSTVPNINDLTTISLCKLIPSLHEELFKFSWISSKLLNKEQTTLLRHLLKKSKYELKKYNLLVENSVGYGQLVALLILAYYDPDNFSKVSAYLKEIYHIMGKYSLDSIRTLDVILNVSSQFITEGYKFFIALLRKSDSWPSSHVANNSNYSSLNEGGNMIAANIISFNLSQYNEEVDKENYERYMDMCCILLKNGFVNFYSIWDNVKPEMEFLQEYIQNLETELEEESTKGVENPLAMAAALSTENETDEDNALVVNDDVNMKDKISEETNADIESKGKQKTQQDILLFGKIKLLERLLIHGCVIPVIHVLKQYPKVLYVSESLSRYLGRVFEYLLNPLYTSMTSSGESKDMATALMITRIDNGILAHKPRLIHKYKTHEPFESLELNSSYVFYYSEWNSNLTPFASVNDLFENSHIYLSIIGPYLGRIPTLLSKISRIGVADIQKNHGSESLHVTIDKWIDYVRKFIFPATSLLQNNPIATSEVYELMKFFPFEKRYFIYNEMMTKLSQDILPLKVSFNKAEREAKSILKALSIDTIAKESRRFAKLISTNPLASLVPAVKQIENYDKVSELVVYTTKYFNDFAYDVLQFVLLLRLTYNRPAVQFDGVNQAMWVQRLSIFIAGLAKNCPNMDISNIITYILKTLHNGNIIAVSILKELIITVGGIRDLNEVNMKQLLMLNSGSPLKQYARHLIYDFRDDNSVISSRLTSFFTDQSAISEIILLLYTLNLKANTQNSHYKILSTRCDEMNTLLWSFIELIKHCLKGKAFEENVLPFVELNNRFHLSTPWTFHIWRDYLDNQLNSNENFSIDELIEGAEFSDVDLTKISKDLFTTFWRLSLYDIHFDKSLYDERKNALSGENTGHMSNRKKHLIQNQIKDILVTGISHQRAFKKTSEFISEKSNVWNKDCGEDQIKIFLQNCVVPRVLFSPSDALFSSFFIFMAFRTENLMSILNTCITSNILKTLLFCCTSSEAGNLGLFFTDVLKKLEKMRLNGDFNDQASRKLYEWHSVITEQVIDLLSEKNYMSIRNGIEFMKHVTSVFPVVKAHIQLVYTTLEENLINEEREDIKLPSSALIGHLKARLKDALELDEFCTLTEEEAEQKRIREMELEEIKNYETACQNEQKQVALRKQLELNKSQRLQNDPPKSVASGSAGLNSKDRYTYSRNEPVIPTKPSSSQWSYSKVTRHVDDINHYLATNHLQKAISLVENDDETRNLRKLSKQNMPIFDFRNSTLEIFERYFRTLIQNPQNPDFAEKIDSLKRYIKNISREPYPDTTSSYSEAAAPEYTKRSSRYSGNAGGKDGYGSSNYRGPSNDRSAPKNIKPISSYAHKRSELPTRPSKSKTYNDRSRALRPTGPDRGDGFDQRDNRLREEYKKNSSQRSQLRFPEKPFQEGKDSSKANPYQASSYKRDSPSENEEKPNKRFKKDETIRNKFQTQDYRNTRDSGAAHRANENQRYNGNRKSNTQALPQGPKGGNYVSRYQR

B1: Hpr1 with a C-terminal FLAG-TEV-2xProtein-A (FTpA) tag (natural protein)
chain: MSNTEELIQNSIGFLQKTFKALPVSFDSIRHEPLPSSMLHASVLNFEWEPLEKNISAIHDRDSLIDIILKRFIIDSMTNAIEDEEENNLEKGLLNSCIGLDFVYNSRFNRSNPASWGNTFFELFSTIIDLLNSPSTFLKFWPYAESRIEWFKMNTSVEPVSLGESNLISYKQPLYEKLRHWNDILAKLENNDILNTVKHYNMKYKLENFLSELLPINEESNFNRSASISALQESDNEWNRSARERESNRSSDVIFAADYNFVFYHLIICPIEFAFSDLEYKNDVDRSLSPLLDAILEIEENFYSKIKMNNRTRYSLEEALNTEYYANYDVMTPKLPVYMKHSNAMKMDRNEFWANLQNIKESDDYTLRPTIMDISLSNTTCLYKQLTQEDDDYYRKQFILQLCFTTNLIRNLISSDETRNFYKSCYLRENPLSDIDFENLDEVNKKRGLNLCSYICDNRVLKFYKIKDPDFYRVIRKLMSSDEKFTTAKIDGFKEFQNFRISKEKIPPPAFDETFKKFTFIKMGNKLINNVWKIPTGLDKIEQEVKKPEGVYEAAQAKWESKISSETSGGEAKDEIIRQWQTLRFLRSRYLFDFDKVNEKTGVDGLFEEPRKVEALDDSFKEKLLYKINQEHRKKLQDAREYKIGKERKKRALEEEASFPEREQKIKSQRINSASQTEGDELKSEQTQPKGEISEENTKIKSSEVSSQDPDSGVAGEFAPQNTTAQLENPKTEDNNAATSNISNGSSTQDMK
For the molecule B1, in the assay with Tho2, the binding result is “binds”.

B2: Thp2 (natural protein)
chain: MTKEEGRTYFESLCEEEQSLQESQTHLLNILDILSVLADPRSSDDLLTESLKKLPDLHRELINSSIRLRYDKYQTREAQLLEDTKTGRDVAAGVQNPKSISEYYSTFEHLNRDTLRYINLLKRLSVDLAKQVEVSDPSVTVYEMDKWVPSEKLQGILEQYCAPDTDIRGVDAQIKNYLDQIKMARAKFGLENKYSLKERLSTLTKELNHWRKEWDDIEMLMFGDDAHSMKKMIQKIDSLKSEINAPSESYPVDKEGDIVLE
With B2, the binding result in the assay with Mft1 was “binds”.
